This note sets out measurements from article PMC2396426 (Nucleic Acids Research, 2008).

The experiment has as its target T1, yeast general transcription factor TFIIB (yeast, UniProt P29055 1-345).
T1 sequence (looked up): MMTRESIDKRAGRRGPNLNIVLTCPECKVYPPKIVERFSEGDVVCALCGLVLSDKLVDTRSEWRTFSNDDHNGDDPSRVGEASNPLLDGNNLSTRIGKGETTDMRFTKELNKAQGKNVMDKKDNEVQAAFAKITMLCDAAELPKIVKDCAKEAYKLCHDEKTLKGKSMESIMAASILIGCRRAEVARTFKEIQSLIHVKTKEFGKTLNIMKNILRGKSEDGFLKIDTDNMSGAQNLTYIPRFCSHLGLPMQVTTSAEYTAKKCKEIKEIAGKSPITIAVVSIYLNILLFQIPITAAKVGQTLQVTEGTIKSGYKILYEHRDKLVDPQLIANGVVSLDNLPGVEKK
Put plainly: native gel or EMSA. In general terms: In EMSA bound probe runs differently from free probe, usually more slowly.

B1: yeast TATA-binding protein (TBP) (natural protein, UniProt P13393 1-240, looked up)
chain: MADEERLKEFKEANKIVFDPNTRQVWENQNRDGTKPATTFQSEEDIKRAAPESEKDTSATSGIVPTLQNIVATVTLGCRLDLKTVALHARNAEYNPKRFAAVIMRIREPKTTALIFASGKMVVTGAKSEDDSKLASRKYARIIQKIGFAAKFTDFKIQNIVGSCDVKFPIRLEGLAFSHGTFSSYEPELFPGLIYRMVKPKIVLLIFVSGKIVLTGAKQREEIYQAFEAIYPVLSEFRKM
As to B1, the binding result is recorded as “binds”.
